According to patent US20210221899A1 (published 2021):

T1: human NGF (human, UniProt P01138 122-241)
T1 construct: also called human Nerve Growth Factor; hN
T1 chain: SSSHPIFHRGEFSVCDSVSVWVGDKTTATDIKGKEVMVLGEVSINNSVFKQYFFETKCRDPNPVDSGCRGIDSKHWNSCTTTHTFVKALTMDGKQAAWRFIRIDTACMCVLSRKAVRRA

T2: canine NGF (canine, UniProt Q29074 110-229 (pig entry), limits assumed)
T2 construct: The protein was secreted from CHO cells and purified; also called cNGF; canine β-NGF
T2 chain: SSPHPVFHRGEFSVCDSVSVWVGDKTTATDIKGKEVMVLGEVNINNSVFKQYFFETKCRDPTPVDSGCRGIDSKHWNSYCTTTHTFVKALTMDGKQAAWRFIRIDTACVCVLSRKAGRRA

B1: can48L2VH_I51A (antibody, V domains shown)
VH: EVQLVESGGDLVKPGGSLRLSCVASGFTFSTYGINWVRQAPGKGLQWVAYASSGGSSTYYADPVKGRFTISRDDAKNMLYLQMNSLRAEDTAIYYCAGSRYTYAYGGGYEFHFWGQGTLVTVSS
VL: QAVLNQPASVSGALGQKVTISCSGSTMDIDIFGVSWYQQLPGKAPKLLVDSDGDRPSGIPDRFSGSRSGNSGTLTITGLQAEDEADYHCQSGDSTLGALAIFGGGTHVTVL
notes: CDR scanning mutant of ZTS-842 (48L2)
B2: can48L2VH_S57A (antibody, V domains shown)
VH: EVQLVESGGDLVKPGGSLRLSCVASGFTFSTYGINWVRQAPGKGLQWVAYISSGGSATYYADPVKGRFTISRDDAKNMLYLQMNSLRAEDTAIYYCAGSRYTYAYGGGYEFHFWGQGTLVTVSS
VL: QAVLNQPASVSGALGQKVTISCSGSTMDIDIFGVSWYQQLPGKAPKLLVDSDGDRPSGIPDRFSGSRSGNSGTLTITGLQAEDEADYHCQSGDSTLGALAIFGGGTHVTVL
notes: as for B1
B3: can48L2VL_G33A (antibody, V domains shown)
VH: EVQLVESGGDLVKPGGSLRLSCVASGFTFSTYGINWVRQAPGKGLQWVAYISSGGSSTYYADPVKGRFTISRDDAKNMLYLQMNSLRAEDTAIYYCAGSRYTYAYGGGYEFHFWGQGTLVTVSS
VL: QAVLNQPASVSGALGQKVTISCSGSTMDIDIFAVSWYQQLPGKAPKLLVDSDGDRPSGIPDRFSGSRSGNSGTLTITGLQAEDEADYHCQSGDSTLGALAIFGGGTHVTVL
notes: as for B1
B4: can48L2VL_D52A (antibody, V domains shown)
VH: EVQLVESGGDLVKPGGSLRLSCVASGFTFSTYGINWVRQAPGKGLQWVAYISSGGSSTYYADPVKGRFTISRDDAKNMLYLQMNSLRAEDTAIYYCAGSRYTYAYGGGYEFHFWGQGTLVTVSS
VL: QAVLNQPASVSGALGQKVTISCSGSTMDIDIFGVSWYQQLPGKAPKLLVDSAGDRPSGIPDRFSGSRSGNSGTLTITGLQAEDEADYHCQSGDSTLGALAIFGGGTHVTVL
notes: as for B1
B5: can48L2VL_D30A (antibody, V domains shown)
VH: EVQLVESGGDLVKPGGSLRLSCVASGFTFSTYGINWVRQAPGKGLQWVAYISSGGSSTYYADPVKGRFTISRDDAKNMLYLQMNSLRAEDTAIYYCAGSRYTYAYGGGYEFHFWGQGTLVTVSS
VL: QAVLNQPASVSGALGQKVTISCSGSTMDIAIFGVSWYQQLPGKAPKLLVDSDGDRPSGIPDRFSGSRSGNSGTLTITGLQAEDEADYHCQSGDSTLGALAIFGGGTHVTVL
notes: as for B1
B6: can48L2VL_A98L (antibody, V domains shown)
VH: EVQLVESGGDLVKPGGSLRLSCVASGFTFSTYGINWVRQAPGKGLQWVAYISSGGSSTYYADPVKGRFTISRDDAKNMLYLQMNSLRAEDTAIYYCAGSRYTYAYGGGYEFHFWGQGTLVTVSS
VL: QAVLNQPASVSGALGQKVTISCSGSTMDIDIFGVSWYQQLPGKAPKLLVDSDGDRPSGIPDRFSGSRSGNSGTLTITGLQAEDEADYHCQSGDSTLGLLAIFGGGTHVTVL
notes: as for B1
B7: can48L2VH_S56A (antibody, V domains shown)
VH: EVQLVESGGDLVKPGGSLRLSCVASGFTFSTYGINWVRQAPGKGLQWVAYISSGGASTYYADPVKGRFTISRDDAKNMLYLQMNSLRAEDTAIYYCAGSRYTYAYGGGYEFHFWGQGTLVTVSS
VL: QAVLNQPASVSGALGQKVTISCSGSTMDIDIFGVSWYQQLPGKAPKLLVDSDGDRPSGIPDRFSGSRSGNSGTLTITGLQAEDEADYHCQSGDSTLGALAIFGGGTHVTVL
notes: as for B1
B8: can48L2VL_G53A (antibody, V domains shown)
VH: EVQLVESGGDLVKPGGSLRLSCVASGFTFSTYGINWVRQAPGKGLQWVAYISSGGSSTYYADPVKGRFTISRDDAKNMLYLQMNSLRAEDTAIYYCAGSRYTYAYGGGYEFHFWGQGTLVTVSS
VL: QAVLNQPASVSGALGQKVTISCSGSTMDIDIFGVSWYQQLPGKAPKLLVDSDADRPSGIPDRFSGSRSGNSGTLTITGLQAEDEADYHCQSGDSTLGALAIFGGGTHVTVL
notes: as for B1
B9: can48L2VL_F32A (antibody, V domains shown)
VH: EVQLVESGGDLVKPGGSLRLSCVASGFTFSTYGINWVRQAPGKGLQWVAYISSGGSSTYYADPVKGRFTISRDDAKNMLYLQMNSLRAEDTAIYYCAGSRYTYAYGGGYEFHFWGQGTLVTVSS
VL: QAVLNQPASVSGALGQKVTISCSGSTMDIDIAGVSWYQQLPGKAPKLLVDSDGDRPSGIPDRFSGSRSGNSGTLTITGLQAEDEADYHCQSGDSTLGALAIFGGGTHVTVL
notes: as for B1
B10: can48L2VL_A100L (antibody, V domains shown)
VH: EVQLVESGGDLVKPGGSLRLSCVASGFTFSTYGINWVRQAPGKGLQWVAYISSGGSSTYYADPVKGRFTISRDDAKNMLYLQMNSLRAEDTAIYYCAGSRYTYAYGGGYEFHFWGQGTLVTVSS
VL: QAVLNQPASVSGALGQKVTISCSGSTMDIDIFGVSWYQQLPGKAPKLLVDSDGDRPSGIPDRFSGSRSGNSGTLTITGLQAEDEADYHCQSGDSTLGALLIFGGGTHVTVL
notes: as for B1
B11: can48L2VL_D93A (antibody, V domains shown)
VH: EVQLVESGGDLVKPGGSLRLSCVASGFTFSTYGINWVRQAPGKGLQWVAYISSGGSSTYYADPVKGRFTISRDDAKNMLYLQMNSLRAEDTAIYYCAGSRYTYAYGGGYEFHFWGQGTLVTVSS
VL: QAVLNQPASVSGALGQKVTISCSGSTMDIDIFGVSWYQQLPGKAPKLLVDSDGDRPSGIPDRFSGSRSGNSGTLTITGLQAEDEADYHCQSGASTLGALAIFGGGTHVTVL
notes: as for B1
B12: can48L2VH_T31A (antibody, V domains shown)
VH: EVQLVESGGDLVKPGGSLRLSCVASGFTFSAYGINWVRQAPGKGLQWVAYISSGGSSTYYADPVKGRFTISRDDAKNMLYLQMNSLRAEDTAIYYCAGSRYTYAYGGGYEFHFWGQGTLVTVSS
VL: QAVLNQPASVSGALGQKVTISCSGSTMDIDIFGVSWYQQLPGKAPKLLVDSDGDRPSGIPDRFSGSRSGNSGTLTITGLQAEDEADYHCQSGDSTLGALAIFGGGTHVTVL
notes: as for B1
B13: can48L2VH_S53A (antibody, V domains shown)
VH: EVQLVESGGDLVKPGGSLRLSCVASGFTFSTYGINWVRQAPGKGLQWVAYISAGGSSTYYADPVKGRFTISRDDAKNMLYLQMNSLRAEDTAIYYCAGSRYTYAYGGGYEFHFWGQGTLVTVSS
VL: QAVLNQPASVSGALGQKVTISCSGSTMDIDIFGVSWYQQLPGKAPKLLVDSDGDRPSGIPDRFSGSRSGNSGTLTITGLQAEDEADYHCQSGDSTLGALAIFGGGTHVTVL
notes: as for B1
B14: can48L2VH_S52A (antibody, V domains shown)
VH: EVQLVESGGDLVKPGGSLRLSCVASGFTFSTYGINWVRQAPGKGLQWVAYIASGGSSTYYADPVKGRFTISRDDAKNMLYLQMNSLRAEDTAIYYCAGSRYTYAYGGGYEFHFWGQGTLVTVSS
VL: QAVLNQPASVSGALGQKVTISCSGSTMDIDIFGVSWYQQLPGKAPKLLVDSDGDRPSGIPDRFSGSRSGNSGTLTITGLQAEDEADYHCQSGDSTLGALAIFGGGTHVTVL
notes: as for B1
B15: can48L2VH_T58A (antibody, V domains shown)
VH: EVQLVESGGDLVKPGGSLRLSCVASGFTFSTYGINWVRQAPGKGLQWVAYISSGGSSAYYADPVKGRFTISRDDAKNMLYLQMNSLRAEDTAIYYCAGSRYTYAYGGGYEFHFWGQGTLVTVSS
VL: QAVLNQPASVSGALGQKVTISCSGSTMDIDIFGVSWYQQLPGKAPKLLVDSDGDRPSGIPDRFSGSRSGNSGTLTITGLQAEDEADYHCQSGDSTLGALAIFGGGTHVTVL
notes: as for B1
B16: can48L2VL_D28A (antibody, V domains shown)
VH: EVQLVESGGDLVKPGGSLRLSCVASGFTFSTYGINWVRQAPGKGLQWVAYISSGGSSTYYADPVKGRFTISRDDAKNMLYLQMNSLRAEDTAIYYCAGSRYTYAYGGGYEFHFWGQGTLVTVSS
VL: QAVLNQPASVSGALGQKVTISCSGSTMAIDIFGVSWYQQLPGKAPKLLVDSDGDRPSGIPDRFSGSRSGNSGTLTITGLQAEDEADYHCQSGDSTLGALAIFGGGTHVTVL
notes: as for B1

Tests used:
Test in all cases: SPR (Biacore T200), 100 nM mAb on NGF chip, similarity to parent mAb
[1] = molecular target: T3, rat NGF (rat, UniProt P25427 122-241)
T3 construct: also called rN
T3 sequence (P25427 122-241 limits assumed): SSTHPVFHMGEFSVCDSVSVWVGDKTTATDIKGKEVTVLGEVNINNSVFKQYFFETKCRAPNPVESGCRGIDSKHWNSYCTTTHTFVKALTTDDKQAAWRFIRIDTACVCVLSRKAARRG
How it was run: (§1)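 For each alanine substitution in heavy- or light-chain CDRs, binding to an NGF chip was measured by SPR (Biacore T200) with 100 nM antibody. The "% similarity score" is the fraction of the mutant's sensorgram points within the parent mAb's mean ±3 SD response-unit window, taken from four replicates.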

[2] = molecular target: T1, human NGF
How it was run: as §1

[3] = molecular target: T2, canine NGF
How it was run: as §1

Binder	Percent Similarity Score (KD on rN) [1] [%]	Percent Similarity Score (KD on hN) [2] [%]	Percent Similarity Score (KD on cN) [3] [%]
B1	37.2	81.8	24.2
B2	99.7	100	98.4
B3	21.2	56.6	17.5
B4	99.9	100	99.7
B5	98.7	99.7	98.3
B6	98.4	99.8	97.3
B7	99.8	99.9	99.3
B8	100	100	100
B9	66	44.3	19.6
B10	98.3	99.9	97.8
B11	99.5	99.9	98.7
B12	99.9	99.9	99.6
B13	99.4	100	97.8
B14	99.8	100	99.4
B15	99.7	99.9	99.1
B16	97.7	99.6	97
